Measured values: US20120027774A1 (DYAX, published 2012)
Values belong to the binder of their own block, whether it stands above or below them.

Experiments:
human MMP-9 = human MMP-9 (human, UniProt P14780 107-707, limits assumed); assay: cell-based or functional assay
[1] = biological target: T1, Human MMP-9 catalytic domain (BIOMOL, SE-244) (human, UniProt P14780 107-445, limits assumed); assay: cell-based or functional assay
human MMP-2 = human MMP-2 (human, UniProt P08253 110-452, limits assumed); assay: cell-based or functional assay
Chain of human MMP-2 (P08253 110-452 limits assumed): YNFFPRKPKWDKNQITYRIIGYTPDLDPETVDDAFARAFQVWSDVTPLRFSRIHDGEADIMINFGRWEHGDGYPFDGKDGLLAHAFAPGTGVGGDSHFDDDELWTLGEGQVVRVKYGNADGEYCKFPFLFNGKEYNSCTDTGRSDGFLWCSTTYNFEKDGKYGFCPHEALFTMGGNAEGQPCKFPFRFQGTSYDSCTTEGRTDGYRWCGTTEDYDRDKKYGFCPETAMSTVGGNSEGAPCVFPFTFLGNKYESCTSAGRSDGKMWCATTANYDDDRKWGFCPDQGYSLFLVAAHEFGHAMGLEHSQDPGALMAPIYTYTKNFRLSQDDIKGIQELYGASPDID

human MMP-10 = human MMP-10 (human, UniProt P09238 99-271, limits assumed); assay: cell-based or functional assay
Chain of human MMP-10 (P09238 99-271 limits assumed): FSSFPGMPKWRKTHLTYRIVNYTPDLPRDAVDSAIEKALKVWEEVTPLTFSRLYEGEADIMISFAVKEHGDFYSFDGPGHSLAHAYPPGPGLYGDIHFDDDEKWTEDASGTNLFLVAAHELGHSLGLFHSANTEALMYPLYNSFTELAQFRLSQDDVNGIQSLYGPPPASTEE

mouse MMP-9 = mouse MMP-9 (mouse, UniProt P41245 20-730, limits assumed); assay: cell-based or functional assay
Chain of mouse MMP-9 (P41245 20-730 limits assumed): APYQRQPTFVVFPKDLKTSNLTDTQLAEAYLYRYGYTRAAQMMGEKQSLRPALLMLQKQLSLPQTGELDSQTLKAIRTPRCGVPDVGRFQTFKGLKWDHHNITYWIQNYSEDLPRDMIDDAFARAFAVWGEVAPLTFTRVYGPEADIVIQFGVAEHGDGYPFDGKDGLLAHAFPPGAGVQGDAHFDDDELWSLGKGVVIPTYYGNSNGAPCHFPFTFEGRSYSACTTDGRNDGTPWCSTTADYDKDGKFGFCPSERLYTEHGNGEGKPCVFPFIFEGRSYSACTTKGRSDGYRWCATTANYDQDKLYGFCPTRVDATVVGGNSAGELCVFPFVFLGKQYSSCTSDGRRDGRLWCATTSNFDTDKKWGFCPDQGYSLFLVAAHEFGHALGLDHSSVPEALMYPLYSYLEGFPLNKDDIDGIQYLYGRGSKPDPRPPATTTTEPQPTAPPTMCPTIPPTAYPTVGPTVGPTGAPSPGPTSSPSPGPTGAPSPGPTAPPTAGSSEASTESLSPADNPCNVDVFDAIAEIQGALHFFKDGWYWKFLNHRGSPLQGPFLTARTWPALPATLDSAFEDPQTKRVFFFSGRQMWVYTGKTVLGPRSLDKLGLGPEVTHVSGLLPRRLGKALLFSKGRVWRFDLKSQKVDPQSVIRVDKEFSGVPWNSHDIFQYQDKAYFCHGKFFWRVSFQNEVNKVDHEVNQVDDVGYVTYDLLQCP

human MMP-12 = human MMP-12 (human, UniProt P39900 106-268, limits assumed); assay: cell-based or functional assay
Chain of human MMP-12 (P39900 106-268 limits assumed): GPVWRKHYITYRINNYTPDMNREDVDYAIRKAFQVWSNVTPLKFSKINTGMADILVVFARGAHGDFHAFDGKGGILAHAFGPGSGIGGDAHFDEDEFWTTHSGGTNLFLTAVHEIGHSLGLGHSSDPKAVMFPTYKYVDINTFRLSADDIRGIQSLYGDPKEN

human MMP-1 = biological target: T2, human MMP-1 (human, UniProt P03956 100-269, limits assumed); assay: cell-based or functional assay
T2 sequence (looked up): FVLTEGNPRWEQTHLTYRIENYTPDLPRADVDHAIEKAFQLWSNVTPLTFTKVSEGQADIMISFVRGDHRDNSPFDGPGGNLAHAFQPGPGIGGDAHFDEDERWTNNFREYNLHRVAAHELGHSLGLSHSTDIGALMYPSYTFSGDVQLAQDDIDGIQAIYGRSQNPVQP

human MMP-7 = biological target: T3, human MMP-7 (human, UniProt P09237 95-267); assay: cell-based or functional assay
T3 sequence (looked up): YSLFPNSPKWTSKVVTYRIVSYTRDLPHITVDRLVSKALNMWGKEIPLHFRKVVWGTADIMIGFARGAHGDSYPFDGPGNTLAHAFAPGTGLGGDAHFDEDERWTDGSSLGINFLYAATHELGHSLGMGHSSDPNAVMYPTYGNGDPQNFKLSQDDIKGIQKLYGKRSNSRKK

mouse MMP-2 = mouse MMP-2 (mouse, UniProt P33434 30-662, limits assumed); assay: cell-based or functional assay
Chain of mouse MMP-2 (P33434 30-662 limits assumed): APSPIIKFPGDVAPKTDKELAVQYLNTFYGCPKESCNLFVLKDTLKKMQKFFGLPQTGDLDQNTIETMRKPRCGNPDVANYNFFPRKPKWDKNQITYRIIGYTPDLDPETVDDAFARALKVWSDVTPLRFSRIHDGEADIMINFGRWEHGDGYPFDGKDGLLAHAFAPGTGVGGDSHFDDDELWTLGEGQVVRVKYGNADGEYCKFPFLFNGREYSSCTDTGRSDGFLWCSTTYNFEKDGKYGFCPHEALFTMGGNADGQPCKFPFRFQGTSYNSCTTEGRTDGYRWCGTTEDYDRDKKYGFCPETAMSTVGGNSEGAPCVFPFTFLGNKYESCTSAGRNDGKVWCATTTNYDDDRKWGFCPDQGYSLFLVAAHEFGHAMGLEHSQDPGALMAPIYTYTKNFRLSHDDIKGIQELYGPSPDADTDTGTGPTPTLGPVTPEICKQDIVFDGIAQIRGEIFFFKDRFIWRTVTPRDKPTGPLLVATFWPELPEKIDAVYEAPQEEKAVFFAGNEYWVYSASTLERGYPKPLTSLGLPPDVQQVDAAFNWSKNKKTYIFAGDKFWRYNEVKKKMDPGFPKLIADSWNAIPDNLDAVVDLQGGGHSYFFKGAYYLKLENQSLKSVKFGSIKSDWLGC

human MMP-8 = human MMP-8 (human, UniProt P22894 100-262, limits assumed); assay: cell-based or functional assay
Chain of human MMP-8 (P22894 100-262 limits assumed): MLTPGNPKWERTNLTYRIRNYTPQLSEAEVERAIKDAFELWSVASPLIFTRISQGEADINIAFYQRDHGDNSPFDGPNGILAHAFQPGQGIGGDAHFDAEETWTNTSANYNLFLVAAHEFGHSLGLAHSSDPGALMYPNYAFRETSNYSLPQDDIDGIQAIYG

human MMP-13 = human MMP-13 (human, UniProt P45452 104-274); assay: cell-based or functional assay
[2] = biological target: T1, Human MMP-9 catalytic domain (BIOMOL, …); assay: cell-based or functional assay; remark: listed apart in the source
human MMP-14 = human MMP-14 (human, UniProt P50281 112-284, limits assumed); assay: cell-based or functional assay
human MMP-3 = human MMP-3 (human, UniProt P08254 100-272, limits assumed); assay: cell-based or functional assay
Chain of human MMP-3 (P08254 100-272 limits assumed): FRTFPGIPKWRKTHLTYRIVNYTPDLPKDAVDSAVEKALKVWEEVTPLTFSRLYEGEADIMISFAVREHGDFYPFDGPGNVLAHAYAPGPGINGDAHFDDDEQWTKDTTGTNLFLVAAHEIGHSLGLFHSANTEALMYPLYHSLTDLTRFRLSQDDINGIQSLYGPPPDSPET

[3] = biological target: T1, Human MMP-9 catalytic domain (BIOMOL, …); assay: cell-based or functional assay; remark: listed apart in the source
[4] = biological target: T1, Human MMP-9 catalytic domain (BIOMOL, …); assay: cell-based or functional assay; remark: listed apart in the source
[5] = biological target: T1, Human MMP-9 catalytic domain (BIOMOL, …); assay: enzyme inhibition, competitive model; intercept of IC50 against substrate concentration (3 to 15 µM), 0.6 nM enzyme
Method: Experiments were performed to characterize the interaction of the M0166-F10 hIgG1 with human MMP-9. The Ki was measured and the inhibition mechanism was determined.
Materials: [0427] Substrate: Mca-KPLGL-Dap(Dnp)-AR-NH₂ (M-2350) from BACHEM (521575). A 10 mM stock solution was prepared in DMSO. [0428] Human MMP-9 catalytic domain (BIOMOL, SE-244), stock solution at 0.24 mg/ml. [0429] M0166-F10 hIgG1: 2551-095. Dialysed against TCN. Stock solution at 0.226 mg/ml. [0430] Experiments were performed in TCNB: 50 mM Tris/HCl, 10 mM CaCl₂, 150 mM NaCl, 0.05% Brij 35, pH 7.5. [0431] 96-well black plates from Perkin Elmer (6005270). [0432] Spectramax M2e to measure fluorescence emission of the substrate upon hydrolysis (temperature control set at 30° C.; λexc=328 nm and λₑₘ=393 nm).
Procedure: [0434] 90 μl of the enzyme (final concentration=0.6 nM) was preincubated with 90 μl of various concentrations (0-100 nM final) of M0166-F10 for 1.5 h at 30° C. 20 μl the substrate was then added to a final concentration ranging from 3 to 15 μM, and initial rates were recorded. [0435] Each data point was measured in triplicate, and initial rates were averaged. […] Averaged initial rates were plotted against the M0166-F10 concentration for each substrate concentration, and IC₅₀'s were calculated using the following equation: […]

T1 sequence (P14780 107-445 limits assumed): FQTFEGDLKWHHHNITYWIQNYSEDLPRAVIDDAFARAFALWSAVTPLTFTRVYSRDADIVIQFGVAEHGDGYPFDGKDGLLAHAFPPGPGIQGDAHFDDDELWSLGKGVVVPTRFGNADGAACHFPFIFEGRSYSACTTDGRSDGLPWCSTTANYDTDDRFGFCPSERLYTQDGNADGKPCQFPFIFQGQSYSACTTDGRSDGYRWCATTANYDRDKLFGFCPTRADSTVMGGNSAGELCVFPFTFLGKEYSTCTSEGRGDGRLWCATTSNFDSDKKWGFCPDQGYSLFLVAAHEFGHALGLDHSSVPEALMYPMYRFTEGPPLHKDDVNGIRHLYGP
Chain of human MMP-9 (P14780 107-707 limits assumed): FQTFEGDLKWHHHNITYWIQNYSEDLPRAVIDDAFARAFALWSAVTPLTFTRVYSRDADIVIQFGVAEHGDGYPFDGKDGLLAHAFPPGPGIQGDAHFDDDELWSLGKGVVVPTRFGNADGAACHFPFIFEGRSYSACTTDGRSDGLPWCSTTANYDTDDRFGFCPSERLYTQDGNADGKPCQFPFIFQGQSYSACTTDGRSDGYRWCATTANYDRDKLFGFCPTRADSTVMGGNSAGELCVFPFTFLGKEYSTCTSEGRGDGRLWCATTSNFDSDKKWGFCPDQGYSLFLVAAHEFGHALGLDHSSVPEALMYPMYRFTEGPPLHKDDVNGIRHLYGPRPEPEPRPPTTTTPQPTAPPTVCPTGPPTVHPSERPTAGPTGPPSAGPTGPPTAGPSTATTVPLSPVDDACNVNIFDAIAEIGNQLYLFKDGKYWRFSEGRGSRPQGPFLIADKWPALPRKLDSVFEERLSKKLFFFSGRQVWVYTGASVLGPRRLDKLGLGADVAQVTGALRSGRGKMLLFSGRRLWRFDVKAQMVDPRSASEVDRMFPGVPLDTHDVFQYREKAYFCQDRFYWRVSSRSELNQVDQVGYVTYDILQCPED

IC50, inhibition of MMP-9 activity (human MMP-9): 1.8 nM
B1: 539A-M0166-F10 (format not stated: Fab or hIgG-1) (antibody, V domains shown)
VH: EVQLLESGGGLVQPGGSLRLSCAASGFTFSPYLMNWVRQAPGKGLEWVSSIYSSGGGTGYADSVKGRFTISRDNSKNTLYLQMNSLRAEDTAVYYCARIYHSSSGPFYGMDVWGQGTTVTVSS
VL: AQSELTQPPSASAAPGQRVTISCSGSSSNIGSNTVTWYQKLPGTAPKLLIYNNYERPSGVPARFSGSKSGTSASLAISGLQSEDEADYYCATWDDSLIANYVFGSGTKVTVLG

IC50 on human MMP-9 activity (fluorogenic substrate, 10 µM) [1]: ~33 nM
residual enzyme activity in the presence of 1 µM antibody, 10 µM fluorogenic peptide substrate (unit not given) (human MMP-2): 126
residual enzyme activity in the presence of 1 µM antibody, 10 µM fluorogenic peptide substrate (unit not given) (human MMP-10): 102
residual enzyme activity in the presence of 1 µM antibody, 10 µM fluorogenic peptide substrate (unit not given) (mouse MMP-9): 94
residual enzyme activity in the presence of 1 µM antibody, 10 µM fluorogenic peptide substrate (unit not given) (human MMP-12): 90
residual enzyme activity in the presence of 1 µM antibody, 10 µM fluorogenic peptide substrate (unit not given) (human MMP-1): 104
residual enzyme activity in the presence of 1 µM antibody, 10 µM fluorogenic peptide substrate (unit not given) (human MMP-7): 93
residual enzyme activity in the presence of 1 µM antibody, 10 µM fluorogenic peptide substrate (unit not given) (mouse MMP-2): 113
residual enzyme activity in the presence of 1 µM antibody, 10 µM fluorogenic peptide substrate (unit not given) (human MMP-8): 100
residual enzyme activity in the presence of 1 µM antibody, 10 µM fluorogenic peptide substrate (unit not given) (human MMP-13): 106
residual enzyme activity in the presence of 1 µM antibody, 10 µM fluorogenic peptide substrate (unit not given) [2]: 8
residual enzyme activity in the presence of 1 µM antibody, 10 µM fluorogenic peptide substrate (unit not given) (human MMP-14): 115
residual enzyme activity in the presence of 1 µM antibody, 10 µM fluorogenic peptide substrate (unit not given) (human MMP-3): 82
B2: 539A-M0166-F10 Fab (Fab, V domains shown)
VH: B1 VH
VL: B1 VL

IC50 on human MMP-9 activity (fluorogenic substrate, 10 µM) [1]: 4.3 nM
IC50 (inhibition of enzyme activity, 3 µM substrate M-2350, 0.6 nM enzyme); unit from the concentration axis [panel 3µM] [3]: 2.16 nM
IC50 (inhibition of enzyme activity, 5 µM substrate M-2350, 0.6 nM enzyme); unit from the concentration axis [panel 5µM] [3]: 2.45 nM
IC50 (inhibition of enzyme activity, 7.5 µM substrate M-2350, 0.6 nM enzyme); unit from the concentration axis [panel 7.5µM] [3]: 4.22 nM
IC50 (inhibition of enzyme activity, 10 µM substrate M-2350, 0.6 nM enzyme); unit from the concentration axis [panel 10µM] [3]: 3.99 nM
IC50 (inhibition of enzyme activity, 12.5 µM substrate M-2350, 0.6 nM enzyme) [panel 12.5µM] [3]: 5.35 nM
IC50 (inhibition of enzyme activity, 15 µM substrate M-2350, 0.6 nM enzyme); unit from the concentration axis [panel 15µM] [3]: 7.06 nM
residual enzyme activity in the presence of 1 µM antibody, 10 µM fluorogenic peptide substrate (unit not given) [2]: 4
a (intercept) of the linear fit of IC50 (nM) against M-2350 substrate concentration (µM); unit taken from the IC50 axis [4]: 0.586 nM
b (gradient) of the linear fit of IC50 (nM) against M-2350 substrate concentration (µM); unit not given [4]: 0.39
Ki [5]: 0.3 nM
B3: 539A-M0166-F10 hIgG1 (antibody, V domains shown)
VH: B1 VH
VL: QSELTQPPSASAAPGQRVTISCSGSSSNIGSNTVTWYQKLPGTAPKLLIYNNYERPSGVPARFSGSKSGTSASLAISGLQSEDEADYYCATWDDSLIANYVFGSGTKVTVLG
notes: Human IgG1; also called DL15
